Results on two proteins are retold here after article doi:10.1101/2022.11.07.515396, “Functional and structural asymmetry suggest a unifying principle for catalysis in integral membrane-bound pyrophosphatases” (bioRxiv, 2022).

Series [1] concerns the molecule itself. Put plainly: crystal structure; TmPPase in OGNG with 0.4 mM K4PPi, vapour diffusion, 24-26% v/v PEG 400, 50-60 mM Tris-HCl pH 8.5, 2-3 mM MgCl2, 175 mM KCl, 2 mM DTT, 20 °C; time-resolved cryo-trapping after soaking in Na+ trigger solution (0-3600 seconds); molecular replacement with PDB 4AV3.
Series [2] concerns the molecule itself. Put plainly: crystal structure; PaPPase in DM with 2 mM IDP, vapour diffusion, 30-33% v/v PEG 400, 0.1 M MES pH 6.5, 0.05 M LiSO4, 0.05 M NaCl, 20 °C; space group P21; eight datasets combined; molecular replacement with PDB 5LZQ.

B1: K+-dependent Na+-pumping membrane-bound pyrophosphatase from Thermotoga maritima (TmPPase), wild type (enzyme, UniProt Q9S5X0 1-726, looked up)
chain: MYVAALFFLIPLVALGFAAANFAAVVRKPEGTERMKEISSYIRSGADSFLAHETKAIFKVAIVIAILLMIFTTWQTGVAFLLGAVMSASAGIVGMKMATRANVRVAEAARTTKKIGPALKVAYQGGSVMGLSVGGFALLGLVLVYLIFGKWMGQVDNLNIYTNWLGINFVPFAMTVSGYALGCSIIAMFDRVGGGVYTKAADMAADLVGKTELNLPEDDPRNPATIADNVGDNVGDVAGLGADLLESFVGAIVSSIILASYMFPIYVQKIGENLVHQVPKETIQALISYPIFFALVGLGCSMLGILYVIVKKPSDNPQRELNISLWTSALLTVVLTAFLTYFYLKDLQGLDVVGFRFGAISPWFSAIIGIFSGILIGFWAEYYTSYRYKPTQFLSKSSIEGTGMVISNGLSLGMKSVFPPTLTLVLGILFADYFAGLYGVAIAALGMLSFVATSVSVDSYGPIADNAGGISEMCELDPEVRKITDHLDAVGNTTAAIGKGFAIGSAIFAALSLFASYMFSQISPSDIGKPPSLVLLLNMLDARVIAGALLGAAITYYFSGYLISAVTKAAMKMVDEIRRQAREIPGLLEGKAKPDYNRCIEITSDNALKQMGYPAFIAILTPLVTGFLLGAEFVGGVLIGTVLSGAMLAILTANSGGAWDNAKKYLEAGNLEGYGKGSEPHKALVIGDTVGDPLKDTVGPSLDILIKIMSVVSVIAVSIFKHVHLF
notes: also called K+-dependent Na+-PPase; TmPPase:Mg2; source: S. cerevisiae BJ1991, purified (hot-solve, nickel-NTA, in OGNG)
For the protein B1, in series [1], the stoichiometry N (usually a count of units in the complex or per binding partner) is 2.

B2: K+-independent H+-pumping membrane-bound pyrophosphatase from Pyrobaculum aerophilum (PaPPase), wild type (enzyme, UniProt Q8ZWI8 1-721, looked up)
chain: MNMISYALLGVILGISGVIYAVYLAVWVLRQDPGNEKMRFISQAIATGARAYLFRQYRTLAVLLVILAVLILVAIDMPRRTFGLTALAFIVGALGSMLAGYLGMYVTTRSASRVAQAAATGGMGKALLVSWRAGAVMGLSLASIALLLISGFYLVFRSVLPDDWAVPLVALGFGASLVTLFMRVGGGIYTKAADLGADLVGKVEAGIPEDDPRNPGVIADNVGDNVGDVAGMAADVYESYIVTVTAAIFLAAILGLPTQFIEAIILFAALALVATFAGVNLLKTTGVKHPLSSISLAIYATIGLSVVLFFIGAFTLGLDSTKALALAATTSLGAVIAPLIVKITDYYTSYNYGPVRKIAEQAKISPATVIITGYGVGLMSAIPVIAVIVAVLGISYMIGYYTVPVSGFGELSKYLAGIFGTAMASVGLLVVAGIIITADSYGPVSDNAGGVVEMAGLPDEVREITDVLDSVGNTTKATTKGYAIASAALAALVLFIALIFEIVYSASKILGKGIVDMISESLSGLQLINANVLIGAFLGVALVYFFSSRTLEAVGRTAMEIVEEIRRQFREKPGILEWKEQPDYARVVDIATRRALGEFLIPGLAAIVLPLITGLLLGWNALAGLIMGAIVAGVPRALLMANAGGAWDNAKKYIEIQGLKKTEMHKAAVIGDTVGDPMKDTVGPSLNPLIKVLNTLSVVFTYVIVSTNIALGIWPSGLLPF
notes: also called PaPPase:Mg5IDP; K+-independent H+-PPase; source: S. cerevisiae BJ1991, purified (hot-solve in DDM, nickel-NTA, protein in DM for crystals)
With B2, in series [2], the “stoichiometry N” value came to 2.
